Biological target: T1, recombinant human vaspin (visceral adipose tissue-derived serpin; serpinA12), 10×His fusion protein (human, UniProt Q8IW75 22-414)
T1 construct: the crystal structure model covers residues 37-366 and 378-414 (chain A); The natural signal peptide is probably absent from the construct; also called native human vaspin; 10×His–vaspin
T1 sequence: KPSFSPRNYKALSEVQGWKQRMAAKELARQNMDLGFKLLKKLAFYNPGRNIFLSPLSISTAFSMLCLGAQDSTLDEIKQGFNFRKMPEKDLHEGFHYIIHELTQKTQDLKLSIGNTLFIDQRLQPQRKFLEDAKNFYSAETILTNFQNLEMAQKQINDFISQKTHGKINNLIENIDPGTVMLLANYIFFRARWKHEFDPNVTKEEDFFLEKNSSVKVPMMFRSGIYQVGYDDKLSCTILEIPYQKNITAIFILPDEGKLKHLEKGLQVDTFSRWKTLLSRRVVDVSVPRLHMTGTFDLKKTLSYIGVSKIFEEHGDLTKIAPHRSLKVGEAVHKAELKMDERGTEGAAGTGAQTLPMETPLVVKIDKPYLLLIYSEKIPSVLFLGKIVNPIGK
Assay: protease activity assay, association rate under pseudo-first-order conditions (residual activity, fluorogenic peptide substrate); tenfold molar excess of vaspin over hK7; remaining hK7 activity against time; k ass = k obs/[I] from a linear fit of ln activity against time
Conditions: both partners purified

B1: recombinant human kallikrein 7 (hK7) (enzyme, UniProt P49862 23-253, looked up)
chain: IIDGAPCARGSHPWQVALLSGNQLHCGGVLVNERWVLTAAHCKMNEYTVHLGSDTLGDRRAQRIKASKSFRHPGYSTQTHVNDLMLVKLNSQARLSSMVKKVRLPSRCEPPGTTCTVSGWGTTTSPDVTFPSDLMCVDVKLISPQDCTKVYKDLLENSMLCAGIPDSKKNACNGDSGGPLVCRGTLQGLVSWGTFPCGQPNDPGVYTQVCKFTKWINDTMKKHR
notes: source: bought: R&D Systems
kon: 7300 M⁻¹ s⁻¹

From PMC3689916, “Vaspin inhibits kallikrein 7 by serpin mechanism” (Cellular and Molecular Life Sciences: CMLS, 2013)
